Laboratory results: the nanobody polyreactivity screen of Harvey et al. (2022)

Assay: yeast display, Sf9 membrane polyspecificity reagent, FACS + sequencing; frameworks hold sequencing errors
Outline: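 In a synthetic yeast display library (Saccharomyces cerevisiae BJ5465), nanobody expression was induced with galactose for 36–48 hours. FACS gates were set low and high (top ~1%) using anti-HA fluorescence for expression and streptavidin fluorescence for binding of the Sf9 membrane reagent. Each polyreactivity label is drawn from the gate of origin.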

| Sequence | polyreactivity (PSR sort gate) |
| --- | --- |
| QVQLVESGGGLVQAGGSLRLSCAASGRTFYPNAMGWSRQAPGKERELVAAINSGGSTYYADSVKGRFTISRDNAKNTVYLQMNSLKPEDTAVYYCNAERRIAYEYWGQGTQVTVSS | low polyreactivity |
| QVQLVQSGGGLVQAGGSLRLSCAASGRTFYYNAMGWYRQAPGKERELVAAITSTGGSTYYADSVKGRFTISRDNAKNTVYLQMNSLKPEDTAVYYCNTLGYTQTRGLDYWGQGTQVTVSS | low polyreactivity |
| QVQLVDSGGGLVQAGGSLRLSCAASGSIFYAYAMGWYRQATGKERQLLAVISRGGITNYSDSVKGRFTISRDNAKNTFFLQMNSLNPEDTAVYYCAAATSAWGYLRRYGYWGQGTQVTVSS | low polyreactivity |
| QVQLVESGGGLVQAGGSLRLSCAASGSIFRRYAMGWYRQAPGKERELVAGISSGGYTNYADSVKGRFTISRDNAKNTVYLQMNRLKPEDTAVYYCAAKQYRYVRYRPVDYWGQGTQVTVSS | high polyreactivity |
| QVQLVESGGGLVQAGGSLRLSSAASGRIFSRYTMGWYRQAPGKERELVAAISWIGTRTYYADSVKGRFTISRDNAKNTVYLQMNSLKPEDTAVYYCNAVFGGYYGYVSNYKFDYWGHGTQVTVSS | high polyreactivity |
| QVQLVESGGGLVQAGGSLRLSCAASGSTFVWYAMGWYRQAPGKEREFVAAITNSGGSTYYADSVKGRFTISRDNAKNTVYLQMNSLKPEDTAVDYCAKDRYYYRGAYHEYNYWGQGTQVTVSS | low polyreactivity |
| QVQLVESGGGLVQAGGSLRLSCAASVITFGYYAMGWYRQAPGKERELVAAISRRGGNTYYADSVKGRFTISRDIAKNTVYLQMNSLKPEDTAVSYCATRALYWRYGYDYWGQGTQVTVSS | high polyreactivity |
| QVQLVESGGGLVQAGGSLRLSCAASGFIFTYNDMGWYRQAPGKERELVASISWDGGRTYYADSVKRRFTISRDNAKNTVYLQMNSLKPEDTADYYWDKRLGGSPIQARGDYWGQCTQVTVSS | low polyreactivity |
| QVQLVESGGGIVQAGGSLRLSCAASGRIFTRYVMGWYRQAPGKERELVAAITGRGTTTYYADSVKGRFTISRDNAKNTVYLKMNSLKPEDTAVYYCAATYYASNPQFTTNYGYWGQGTQVTVSS | high polyreactivity |
| QVQLVESGGGLVQAGGSLRLSFPASGSTYFTYAMGWYRQAPGKERELVAAISWSGGTTYYADSVKGRFTISRDNAKNTVYLQMNSLKPEDTAVYYCASDRAGILKANDYWGKGTQVTVSS | low polyreactivity |
| QVQLVESGGGLVQAGGSLRLSCAASGSTINYYAMGWYRQAPGKERELVAAISRRSGSTYYADSVKGRFTISRDNAKNTVYLQMNSLKPEDTAVYYCAAGYGGTFNWGQGTQVTVSS | high polyreactivity |
| QVQLVESGGGLVQAGGSLRLSCAASGRTFALNTMGWYRQAPGKERELVAAITIGGSTYYADSVKGRFTISRDNAKNTVYLQMNSLKPEDTAVYYCAARTRGAWAYWGQGTQVTVSS | high polyreactivity |
| QVQLVESGGGLVQAGGSLRLSCAASGFTLGWYAMGWYRQAPGKERELVASINWDGGSTYYADSVKGRFTISRDNAKNTVYLQMNSLKPEDTAVYYCNAVNKWFPKVGYNYWGQGTQVTVSS | high polyreactivity |
| QVQLVESGGGLVQAGGSIRLSCAASGSIFEVNAMGWYRQAPGKERELVAGISNADSTNYADSVKGRFTISRDNAKNTVYLQMNSLKPEDTAVYYCATDLYRDPPKDLLGPEYDYWGQGTQVTVSS | low polyreactivity |
| QDQLVESGGGLVQAGGSLRLSCSASGRIFTRNTMGWYRQAPGKERELVAAITSRGGSTYYADSVKGRFTISRDNAKNTVYLQMNSLKPEDTAVYDCAADKPRSYYYWGQGTQVTVSS | high polyreactivity |
| QVQLVESGGGLVQAGGSLRLSCAASGRTFSKYAMGWYRQAPGKERELVAAITSGGGTYYADSVKGRFTNSRDNAKNTVYLQMNSLIPEDTGVYSCAVSVTTVSTYDYWGQGTQVTVSS | low polyreactivity |
| QVQLVESGGGLVQAGGSLRLSCAASGRTFPSNAMGWYRQAPGKEREFVASITYSGGRTYYADSVKGRFTISRDNAKNTVYLQVNSLKPEDTAVYYCAAYPQFWYLDYNYWGQGTQVTVSS | high polyreactivity |
| QVQLVESGGGLVQAGGSLRLSCAASGRNFKYNAMGSYRTAPGKERELVAAISSGGSTKYADSVKGRFTISRDNATKTVYLQMNSLKPEDTAVYYCNAVYTPYRRSFYYWGQGTQVTVSS | high polyreactivity |
| QVQLVESGGGLVQAGGSLRLSCAASGFIFRFYAMGWYRQAPGKERELVAGISSSGGSTYYADSVKGRFTISRDNAKNTVYLQMNSLKPEDTAVYYCNAKRSDQSSKTFNYWGQGTQVTVSS | low polyreactivity |
| QVQVVESGGGLVQAGGSLRLSCAASGSIFKFNAMGWYRQAPGKERELVAAISYSGGNTDYADSVKGRFTISRDNAKNTVYLQMNSLKPEDTAVYYCAATSYLVLTLEYDYWGQGTQVTVSS | low polyreactivity |
| QVQLVESGGGLVQAGCSLRLSCAASGSIFFSYAMGWYRQAPGKEREFVAAINSDDASTYADSVKGRFTISRDNAKNTVYLQKNSLNPEDTAVYYCAASFLWSWYDYWGQGTHVTVSS | low polyreactivity |
| HVQLVESGGGLVQARGSLRLSCAASGRTSWYYAMGWYRQAPGKEKELVAAITASGGSTYADSVKGRFTISRDNAKNTVYLEMNSLKPEDTAVYYCAAERPYSRVGYYYWGQGTQVTVSS | high polyreactivity |

| Sequence | polyreactivity (PSR sort gate) |
| --- | --- |
| QVQLVESGGGLVQAGGSHRLSCAAYGRTFGVYAMGWYRQAPGKERELVAAISSRGGSTYYADSVKGRFTISRDNAKNSVYLQMNSLKPEDTAFYYCAAPWYQGLDYWGQGTQVTVSS | high polyreactivity |
| QVQLVESGGGVVQAGGSLRLSCAASGSIFRRNAMGWYRQAPGKERELVAAISWTTGSTYYADSVKGRFTISRDNAKNTVYLLMNSLKAEDTSVYYCAAVIRSRYSYYEYDFWGQGTKVTVSS | high polyreactivity |
| QVQLVESGGGLVQAGGSLRLSCAASGRIFTPNAMGWYRQPPGKERELVAAITWSGDNTYADSVKGRFTISRDNAKNTVYLQMNILKPEDTAVYYCAAAYGYGHKKYGYWGQGTQVTVSS | low polyreactivity |
| QVQLEDSGGGLVQAGRSLLLSFAASGNTFWLNAKGRYRQAPGKERELVAAITYTDGSTYADSVKGRFTISRDNAKITVYLQMNSLKPEDSAVYYCAARYQWDWRDYYYWGQGTQVTVSS | low polyreactivity |
| LVQLVESGGGLVQAGGSLRLSCAASGITLARNAMGWYRQAPGKEWELVAAITWSGGTTYYADSVKGRFTISRDNAKNTVYLQMNSLKPEDTAVYYCAASAKLHYYRTYRYNYWGQGTQVTVSS | high polyreactivity |
| QVQLVESGGGLVQAGGSLRLSCAASGSIFTYNAMGWYRPAPGKERELVAAINTSGSTNYADSVKGRFTISRDNAKNTVYLQMNSLKPEVTAVFYCAAGIVVTGYYYWGQGTQVTVSS | low polyreactivity |
| QFQLVESGGGLVQAGGSLRLSCAASGSILESNVMGWYRQAPGKERELVASISSSGVSTYADSVKGRFTISRDNAKNTVYLQMNSLKPEDNAVYYCAADRWYWTYALYYWGQGTQVTVSS | low polyreactivity |
| QVQLVESGGGLVQAGGGLRLSCAASGFTFYLYVMGWYRQAPGKERELVARISRSGGTTYYADSVKGRFTISRDNAKNTVYLQMNSLKPEDTAVYYCAARRYGVPPTYDYCGQGTQVTVSS | high polyreactivity |
| QVQLVESGGGLVQAGGSLRLSCAASGRIIGSYAMGWYRQAPGKERELVAAISRGGITNYADSVKGRFTIARDNAKNTVYLQMNSLKPEDTAVYYCAVGIRYRGRQGYYGYYTYDYWGQGTQVTVSS | high polyreactivity |
| QVQLQESGGGLVQAGGSLSLRCSASRNITRSSDLGWYHQAPGKEREFVASITSGGTTYYADSVKGRFTISRDNAKNTVYLEMNSLKPEDTAVYYCAVGDQADAEFGYWGQGTQVTVSS | low polyreactivity |
| QVQLVESGGGLVQAGGSLRLSCAASGFIFSIYAMGWYRQAPGKERELVATITYSGGSTYYADSVKGRFTISRDNAKNTVYLQMNSLKPEDTAVYYCNALSKGYYTIGGYSWGQGTQVTVSS | low polyreactivity |
| QVQLVESGGGLVQAGGSLRLSCAASGRIFYLYAMGWYRQAPGKERELVAAISWGGGSTYYADSVKGRFTISRDNAKNTVYLQMNSLKPEDTAVYYCAAAVTTWVEYDYWGQGTQVTVSS | low polyreactivity |
| QVQLQESGGGLVQAGGSLRLSCAASGYISLAQTIGWYRQAPGKEREFVASIALGSSTYYTDSVKGSFTISRDNANTPVYLQMNSLKPEDTAVYYCAARVGASYAHDYWGQGTQVTVSC | low polyreactivity |
| QVQLVESGGGLVQAGGSLRLSCAASGYIFSSYAMGWYRQAPGKERELVAAISWTGGTYYADSVKGRFTISRDNAKNTVYLQMNSLNPEDTAVYYCAVRYKRKGSGYRTNAYDYWGQGTQVTVSS | high polyreactivity |
| QVQLVESGGGLVQAGGSLRLTCAASGLTFRSYTMRWYRQAPGTERELVAAITFRGGSTYYADSLKGRFTISRDNAKNTVYLQMNSLKPEDTAVYYSAAVAIRRSVPVPRFDYWGQGTQVTVSS | high polyreactivity |
| QVQLVESGGGLVQAGGSLRLSCAASGSTFRVYAMGWYRQAPGKERELVATISWGGGRTYYADSVKGRFTISRDNAKNTVYLQMNSLKPEDTAVYYCAADQRWTTDQPTAGDYWGQGTQVTVSS | low polyreactivity |
| QVQLVESGGGLVQAGGSLRLSCAASGSTFVNNAMGWYRQAPGKERELVAAISKTGGRTRYADSVKGRFTISRDNAKNTVYLQMNSLKPEDTAVYYCAARYYGGGYNYWGQGTQVTVSS | high polyreactivity |
| QVQLVESGGGLVQAGGSLRLSCAASGFTFRAYTMGWYRQAPGKERELVAAITYSGGPTYYADSVKGRFTISRDNAKNTVYLQMNSLKPEDTAVYYCAKRGWALSEYYYWGQGTQVTVSS | high polyreactivity |
| QVQLVETGGGLVQAGGSLRLSCAASGLSFGRNAIGSYRQAPGKERELVAAISRSGGRTSYADSVKGRFTISRDTAKNTVYLQMNSLKPEDTAVYYCAARSDVYTHDYWGQATQVTVSS | high polyreactivity |
| QVQLVESGGGLVQAGGSLRLSCAASGSIFGYYAMGWYRQAPGKERELVAAITYSGGNTNYADSVKGRFTISRDNAKNTVYLQMNSLKPEDTAVYYCAARKNYQAVYARRTRYYYWGQGTQVTVSS | high polyreactivity |
| QVQLLESGGGLVQAGGSLRLSCAASGITFQLYAMGWYRQAPGKEREFVAAINGRSGRTYYADSVKGRFTISRDNAKNTVYLHMNSLKPEDTAVYYCAKTSNGYGSGLPMYYWGQGTQVTVSS | high polyreactivity |
